The target in assay [1] is T1, human EphA2 (ephrin receptor A2), on cells (human, UniProt P29317 24-976).
T1 construct: Used for HEK293 transfectants, A549 and other human tumor cell lines
Description: flow cytometry binding on A549 cells. As for the experimental part:
(§1) Surface binding of the antibodies to in vitro grown cell lines was assessed by flow cytometry. Tumor cells were detached from their culture plate using Versene and counted. Cells were staining in BSA-containing buffer with primary antibody for 30 minutes at 4° C. with shaking. Following, cells were washed and stained with secondary PE-labeled antibody for 30 minutes at 4° C. with shaking. Before analysis on an Intellicyt iQue3 scanner, cells were counterstained with DAPI. MedFI values from live, single cells was expressed as fold over isotype control.
For orientation: A flow cytometer gives signals particle by particle.

In assay [2] the target is T2, C-terminally His-tagged hEphA2-FN2 (Thr437-Asn534+His tag) (human, UniProt P29317 437-534).
T2 construct: SPR analyte; also called FN2 domain of hEphA2
T2 sequence (P29317 437-534 limits assumed): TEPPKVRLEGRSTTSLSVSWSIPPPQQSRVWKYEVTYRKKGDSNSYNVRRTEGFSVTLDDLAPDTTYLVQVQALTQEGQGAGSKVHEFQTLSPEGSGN
Description: SPR Biacore T200, 25 C, mIgG2a captured by anti-mouse Fc, FN2-His as analyte, steady-state fit, monovalent. The method, then:
Binding of antibodies to the FN2 domain of hEphA2 was measured using the Biacore® T200 SPR system at 25° C. using HBS-EP+ buffer (0.01 M HEPES pH 7.4, 0.15 M NaCl, 3 mM EDTA, 0.005% v/v Surfactant P20). Antibodies in mIgG2a format were captured at levels between 475-715 RU via an anti-mouse Fc antibody immobilized to a CM5 chip. Binding was assessed using a titration of C-terminally His-tagged hEphA2-FN2 (Thr437-Asn534+His tag) associated for 30 s or 75 s at 30 uL/min. Data was double-reference subtracted using both a surface without captured antibody and from injections of HBS-EP+ buffer. The equilibrium response was measured at 4 seconds before the end of association with a window of 5 seconds and fit using the Biacore T200 Evaluation Software 3.1 with the Steady State Affinity Model.
A general note: SPR reads the build-up and loss of mass on a sensor chip optically.

Assay [3] has as its target T3, Human EphA2 (ephrin receptor A2) (human, UniProt P29317 24-976).
T3 construct: Endogenous protein in frozen human tumor tissue and tumor adjacent tissue, not a recombinant construct
Description: IHC/IF score on frozen human tumor tissue, STS.

Assay [4] has as its target T3, Human EphA2 (ephrin receptor A2). Description: IHC/IF score on frozen human tumor tissue, CRC.
For assay [5] the target is unchanged. Description: IHC/IF score on frozen human tumor tissue, NSCLC-SQ.
Assay [6] has the same target. Description: IHC/IF score on frozen human tumor tissue, ANC.
For assay [7] the target is unchanged. Description: IHC/IF score on frozen human tumor tissue, UCEC-papillary.
The target is the same in assay [8]. Description: IHC/IF score on frozen human tumor tissue, MELA.
Assay [9] shares this target. Description: IHC/IF score on frozen human tumor tissue, TNBC.
The target is the same in assay [10]. Description: IHC/IF score on frozen human tumor tissue, UCEC-endometriod.
The target is the same in assay [11]. Description: IHC/IF score on frozen human tumor tissue, PANC.
Assay [12] shares this target. Description: IHC/IF score on frozen human tumor tissue, Her2+ BRC.
Assay [13] has the same target. Description: IHC/IF score on frozen human tumor tissue, ESC.
Assay [14] has the same target. Description: IHC/IF score on frozen human tumor tissue, URO.
Assay [15] has the same target. Description: IHC/IF score on frozen human tumor tissue, NSCLC-Adeno.
For assay [16] the target is unchanged. Description: IHC/IF score on frozen human tumor tissue, HNC.
Assay [17] shares this target. Description: IHC/IF score on frozen human tumor tissue, GAC.
Assay [18] shares this target. Description: IHC/IF score on frozen human tumor tissue, OVA.
Assay [19] has the same target. Description: IHC/IF score on frozen human tumor tissue, ER+ BRC.
Assay [20] has the same target. Description: IHC/IF score on frozen human tumor tissue, RCC-papillary.
The target is the same in assay [21]. Description: IHC/IF score on frozen human tumor tissue, RCC-clear cell.
The target is the same in assay [22]. Description: IHC/IF score on frozen human tumor tissue, PROC.
Assay [23] shares this target. Description: IHC/IF score on frozen human tumor tissue, UCEC-clear cell.
The target in assay [24] is T1, human EphA2 (ephrin receptor A2), on …. Description: flow cytometry on A549 cells. The method, then: as §1

Residue numbers refer to the chain shown, from its start.

T1 sequence (P29317 24-976 limits assumed): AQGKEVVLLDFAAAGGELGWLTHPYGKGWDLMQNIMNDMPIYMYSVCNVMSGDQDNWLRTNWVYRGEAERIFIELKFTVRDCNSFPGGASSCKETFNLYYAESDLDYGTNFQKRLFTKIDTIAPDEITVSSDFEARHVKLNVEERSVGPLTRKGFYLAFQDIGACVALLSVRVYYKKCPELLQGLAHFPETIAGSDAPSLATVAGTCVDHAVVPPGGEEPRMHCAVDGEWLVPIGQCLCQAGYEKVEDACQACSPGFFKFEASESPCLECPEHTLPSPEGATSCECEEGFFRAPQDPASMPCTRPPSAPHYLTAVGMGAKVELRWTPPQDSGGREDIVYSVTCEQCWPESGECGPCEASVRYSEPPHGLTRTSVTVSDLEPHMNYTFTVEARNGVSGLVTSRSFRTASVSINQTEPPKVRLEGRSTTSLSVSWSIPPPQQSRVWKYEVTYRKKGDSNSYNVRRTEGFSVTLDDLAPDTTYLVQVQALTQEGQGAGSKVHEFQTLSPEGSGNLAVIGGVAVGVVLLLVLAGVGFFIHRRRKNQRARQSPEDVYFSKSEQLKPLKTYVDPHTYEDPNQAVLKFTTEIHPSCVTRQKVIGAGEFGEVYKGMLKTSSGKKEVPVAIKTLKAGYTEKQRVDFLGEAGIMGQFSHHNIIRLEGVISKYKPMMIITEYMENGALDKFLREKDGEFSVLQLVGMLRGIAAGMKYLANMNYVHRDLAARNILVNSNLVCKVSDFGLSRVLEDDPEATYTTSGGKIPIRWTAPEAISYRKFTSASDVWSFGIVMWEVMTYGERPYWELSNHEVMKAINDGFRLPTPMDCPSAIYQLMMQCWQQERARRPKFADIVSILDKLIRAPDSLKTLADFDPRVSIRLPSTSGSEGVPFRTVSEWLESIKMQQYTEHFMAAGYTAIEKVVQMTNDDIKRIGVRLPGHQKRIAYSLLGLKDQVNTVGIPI
T3 sequence (P29317 24-976 limits assumed): as above

B1: AB-009808 (antibody, mouse IgG2a, V domains shown)
VH: QVQLQQWGAGLLKPSETLSLTCAVYGGSFSDYYWSWIRQPPGKGLEWIGEINHSGSTNYNPSLKSRVTISVDPSKNQFSLKLTSVTAADTAVYYCAKPFRPHCTNGVCYSGDAFDIWGQGTMVTVSS
VL: SYVLTQPPSVSVAPGQTARITCGGNNIGSKNVHWYQQKPGQAPVLVVYDDSDRPSGIPEQFSGSNSGNTATLTISRVEAGDEADYYCQVWDSSSDHLVFGGGTKLTVL
Consider B1, for which the “Flow Delta activity (MedFI)” value in [1] worked out at 29500 MedFI.

B2: AB-010363 (antibody, V domains shown)
VH: QVQLQQWGAGLLKPSETLSLTCAVYGGSFSGYYWSWIRQPPGKGLEWIGEINHRGSINYNNYNPSLKSRVTISVDTSKNQFSLKLSSVTAADTAVYYCAKPLRPHCTNGVCYSGDAFDIWGQGTMVTVAS
VL: B1 VL with Q60R, L97V
notes: Tested in mIgG2a format
One may read the Kd as the equilibrium constant for the complex coming apart. High values mean a looser complex, low ones a tighter complex. As for B2, the Kd in [2] is 1310 nM.

B3: AB-009812 (antibody, mouse IgG2a, V domains shown)
VH: B2 VH with G31D, I51V, R54S, T76P, S86T
VL: B1 VL
As for B3, the IHC score is 2 in assay [3]; 1 in assay [4]; 1 in assay [5]; 2 in assay [6]; 2 in assay [7]; 2 in [8]. Also, the IHC score in assay [9] came out at 1; in [10] it was 1; in assay [11], 1; in assay [12], 2; in assay [13] it was 2; in assay [14] it was 1. In addition, the IHC score was found to be 2 in assay [15]; 2 in assay [16]; 2 in [17]; 2 in assay [18]; 1 in assay [19]; 1 in assay [20]. Further, the IHC score in assay [21], in assay [22] and in [23] was 1 throughout.

B4: AB-009813 (antibody, mouse IgG2a, V domains shown)
VH: B2 VH with G31D, I51V, R54A, T76P, S86T
VL: B1 VL
B4: the IHC score in assay [3] was 2; in assay [4] it was 1; in [5], 1; in assay [6] it was 2; in [7], 2; in [8], 2. The IHC score in assay [9] turned out to be 1; in assay [10], 1; in [11] it was 1; in [12] it was 1; in assay [13] it was 2; in assay [14] it was 1. Further, the IHC score worked out at 2 in [15]; 2 in assay [16]; 2 in assay [17]; 2 in assay [18]; 1 in assay [19]; 1 in assay [20]. The IHC score was found to be 1 in assay [21], 1 in assay [22] and 2 in assay [23].

B5: AB-009814 (antibody, mouse IgG2a, V domains shown)
VH: B1 VH with I51V, S54R, T57I, F99L, S126A
VL: B1 VL
For orientation: EC50 means the concentration needed to bring the measured effect to its halfway point. A lower EC50 goes with higher potency in that assay. As to B5, in [24], the “Delta (flow)” value was determined as 407000 and a half-maximal response (EC50) required 11.5 nM.

B6: AB-009813 (antibody, mouse IgG2a, V domains shown)
VH: B2 VH with G31D, I51V, R54A, T76P, S86T
VL: B1 VL
As to B6, in [24], the “Delta (flow)” value came to 578000 and the EC50 amounted to 6.8 nM.

B7: AB-010361 (antibody, mouse IgG2a, V domains shown)
VH: B2 VH
VL: B1 VL with L97V
notes: Tested with mouse IgG2a constant regions (mIgG2a format)
In turn, B7 showed an equilibrium dissociation constant (Kd) in assay [2] of 1110 nM.

B8: AB-009815 (antibody, mouse IgG2a, V domains shown)
VH: B2 VH with G31D, I51V, S86T
VL: B1 VL
For B8, in assay [24], the “Delta (flow)” value stood at 745000 and the response was half-maximal at 5.5 nM (EC50).

B9: AB-009805 (antibody, V domains shown)
VH: B1 VH with F29L, Y33H, P73T, T83S, T86S, Y109H, V123A
VL: B1 VL
For B9, in assay [1], the “Flow Delta activity (MedFI)” value was 75100 MedFI.

B10: AB-009807 (antibody, mouse IgG2a, V domains shown)
VH: B1 VH with S30N, I51V, N58S, P73T, T83S
VL: B1 VL with V44A
Consider B10, for which the “Flow Delta activity (MedFI)” value in assay [1] is 12700 MedFI.

B11: AB-009812 (antibody, mouse IgG2a, V domains shown)
VH: B2 VH with G31D, I51V, R54S, T76P, S86T
VL: B1 VL
Turning to B11, in [24], the “Delta (flow)” value was 568000 and a half-maximal effect (EC50) was put at 9.6 nM.

B12: AB-009816 (antibody, mouse IgG2a, V domains shown)
VH: B2 VH with G31D, I51V, T76A, S86T
VL: B1 VL
Turning to B12, in assay [24], the “Delta (flow)” value turned out to be 670000 and the midpoint of the response, the EC50, lay at 5.5 nM.

B13: AB-008873 (mouse IgG2a format) (antibody, V domains shown)
VH: B2 VH with G31D, I51V, T76P, S86T
VL: SYVLTQPPSVSVAPGQTARITCGGNNIGSKNVHWYQQKPGQAPVLVVYDDSDRPSGIPEQFSGSNSGNTATLTISRVEAGDEADYYCQVWDSSSDHLVFGGGTKLTVLG
As for B13, in assay [2], the Kd came out at 2260 nM.

Source of the values: patent publication US20250051464A1 (IMMUNOME, published 2025).
